Molecular target: MtrR-MBP (Neisseria gonorrhoeae) (UniProt P39897)
Experiment: competition EMSA
Conditions: 30 ul reaction buffer (composition not stated), room temperature; 6% native PAGE at 4 C; 2 ug MtrR-MBP or 1 ug GdhR-His

Sequence of MtrR-MBP (Neisseria gonorrhoeae) (P39897 whole entry): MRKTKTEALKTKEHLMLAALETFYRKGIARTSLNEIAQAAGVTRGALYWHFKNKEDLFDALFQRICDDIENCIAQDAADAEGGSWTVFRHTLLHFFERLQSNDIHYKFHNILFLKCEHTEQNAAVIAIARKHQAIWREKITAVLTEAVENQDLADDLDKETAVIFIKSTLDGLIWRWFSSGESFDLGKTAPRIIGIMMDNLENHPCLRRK

Row | Sequence | binding
1 | TGCCGTTGACGGCGGGAACGGCGTGTCATTAGAATCCGCCCTGATTGGCCAGTCCAATTTGATGTTTGATGTATTTCGGAAGGGTTCTGCAGGGAATCTTTATAAAGGAGGAGTGATGAAAC (double strand) [R4/R2 (gdhR promoter and downstream)] | binds
2 | CCGTTCCCGCCGTCAACGGCACTTACCTCGCACCGCCCCCGAAACACAGGAAAAAACTACACCAAACTACAATTTTTGTTCATGCAAATATTTGTTTTAACGGGATTTAAATGAAAGCTCCGATTCAAATCTGCCGAACCGCCCAAAAATATATTGACCTGAATATTAAAGTTTCGTAAAGTAATGCAACGTTGCTTTAATTGGTTTGACCACTATTGCCGACGATTAGAAAAATATTTTCGGAGATGTTCAATTATGGAAACTTGGGTTCAAAACTACACGGCAATCGGCG (double strand) [R3/R5 (upstream of gdhR promoter)] | no binding

Reference: article PMC5388806
